# Data as given in doi:10.1101/2020.07.09.195057 (bioRxiv, 2020).
# T1: Dcp1/Dcp2core (Schizosaccharomyces pombe, UniProt Q9P805;O13828 1-127;1-243)
# T1 sequence 1: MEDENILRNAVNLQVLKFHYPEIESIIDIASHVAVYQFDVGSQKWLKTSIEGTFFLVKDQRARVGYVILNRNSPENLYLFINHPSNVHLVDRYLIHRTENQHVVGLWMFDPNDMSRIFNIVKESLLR
# T1 sequence 2: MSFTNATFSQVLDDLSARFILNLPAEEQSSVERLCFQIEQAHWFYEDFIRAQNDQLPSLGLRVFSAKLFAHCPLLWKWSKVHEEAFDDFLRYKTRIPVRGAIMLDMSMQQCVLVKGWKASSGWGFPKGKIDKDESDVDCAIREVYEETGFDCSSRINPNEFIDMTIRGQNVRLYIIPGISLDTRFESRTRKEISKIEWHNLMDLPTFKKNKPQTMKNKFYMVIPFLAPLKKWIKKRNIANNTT
# T2: Dcp1(1-127) (S. pombe, UniProt Q9P805 1-127, perdeuterated background, 1H/13C-labelled ILVMA terminal methyl groups)
# T2 sequence (looked up): T1 sequence 1
# B1: Dcp2(1-504)_(eSrtA), sortase-ligated Dcp2ext with C-terminal StrepII (domain or fragment, S. pombe)
# chain: MSFTNATFSQVLDDLSARFILNLPAEEQSSVERLCFQIEQAHWFYEDFIRAQNDQLPSLGLRVFSAKLFAHCPLLWKWSKVHEEAFDDFLRYKTRIPVRGAIMLDMSMQQCVLVKGWKASSGWGFPKGKIDKDESDVDCAIREVYEETGFDCSSRINPNEFIDMTIRGQNVRLYIIPGISLDTRFESRTRKEISKIEWHNLMDLPTFKKNKPQTMKNKFYMVIPFLAPLKKWIKKRNIANNTTKEKNISVDVDADASSQLLSLLKSLPETGGGATPQPSTFPQPPVESHSSFDIKQKILHLLNEGNEPKSPIQLPPVSNLPLNPPIQSSNSRLSHDNNSFDPFAYLGLDPKNPSASFPRVVSQNNMLTNKPVLNNHFQQSMYSNLLKDQNSVQHLFAASDMPSPMELPSPSTVYHQVFYPPTSTSVSSYGLGKTPQPAYGSSSPYVNGHQTQQISSLPPFQSQTQFLARNSDNSGQSYNSEGDSNSKRLLSMLSQQDTTPSSST
# modifications: residues 1-266 perdeuterated with 1H/13C-labelled ILVMA terminal methyl groups; 274-504 unlabelled
# Tests used:
# [1] = biological target: T1, Dcp1/Dcp2core; assay: fluorescence polarization
# [2] = biological target: T2, Dcp1(1-127); assay: co-purification
binder,measurement,setting,value
"UUUUUUUUUUUUUUUUUUUUUUUUUUUUUU (ssRNA, 5' phosphate) [30U RNA]",binding result,[1],binds
B1,binding result,[2],binds
